The source of these data is patent US20230020729A1 (Memorial Sloan Kettering, published 2023).

The chains are these.
T1: human Fc Receptor-Like 5 (FcRL5), full length, expressed on cells (human, UniProt Q96RD9 16-977)
T1 construct: also called CD307e; IRTA2
T1 sequence: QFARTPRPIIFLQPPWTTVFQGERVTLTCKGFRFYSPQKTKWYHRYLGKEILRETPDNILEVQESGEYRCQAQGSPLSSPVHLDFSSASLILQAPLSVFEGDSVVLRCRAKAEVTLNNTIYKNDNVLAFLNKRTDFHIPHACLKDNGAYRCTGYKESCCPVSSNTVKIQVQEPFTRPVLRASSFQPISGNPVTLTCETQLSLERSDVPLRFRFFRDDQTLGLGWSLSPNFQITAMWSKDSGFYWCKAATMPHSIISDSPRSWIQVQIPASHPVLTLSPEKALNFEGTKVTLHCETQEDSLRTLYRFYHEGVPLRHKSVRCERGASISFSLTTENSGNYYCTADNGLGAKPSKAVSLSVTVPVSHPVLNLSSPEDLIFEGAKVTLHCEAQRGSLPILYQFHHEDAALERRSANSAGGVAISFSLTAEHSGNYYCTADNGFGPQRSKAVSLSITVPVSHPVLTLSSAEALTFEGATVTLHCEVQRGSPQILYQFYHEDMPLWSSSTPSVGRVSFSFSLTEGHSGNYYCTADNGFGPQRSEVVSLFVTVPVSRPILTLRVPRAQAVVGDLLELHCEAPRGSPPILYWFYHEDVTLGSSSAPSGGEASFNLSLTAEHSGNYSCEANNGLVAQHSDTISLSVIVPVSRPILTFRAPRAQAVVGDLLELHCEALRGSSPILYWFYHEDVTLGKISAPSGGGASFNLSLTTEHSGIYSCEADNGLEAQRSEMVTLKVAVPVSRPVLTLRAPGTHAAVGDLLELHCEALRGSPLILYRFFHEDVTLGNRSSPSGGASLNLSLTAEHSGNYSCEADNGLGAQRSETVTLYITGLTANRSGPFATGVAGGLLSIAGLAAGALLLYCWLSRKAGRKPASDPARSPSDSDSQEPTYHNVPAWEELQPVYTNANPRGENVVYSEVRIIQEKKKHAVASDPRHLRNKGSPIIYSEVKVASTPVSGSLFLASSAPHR

B1: ET200-125 scFv (scFv)
scFv: NFMLTQPHAVSESPGKTVTISCTRSSGSIASNYVQWYQQRPGSSPRTVIYEDNQRPSGVPGRFSGSIDSSSNSASLTISGLKTEDEADYYCQSYDSTSVLFGGGTKLTVLGSRGGGGSGGGGSGGGGSLEMAEVQLVQSGAEVKKPGSSVKVSCKASGGTFSSNSLSWVRQAPGQGLEWMGRIFPILGITNYAQKFQGRVTITADKSTSTAYMELSSLRSEDTAVYYCARGNYQWYDAFDIWGQGTMVTVSS
notes: VL-linker-VH; screened as scFv phage clone
B2: ET200-005 scFv (scFv)
scFv: QPVLTQPPSVSVVPGKTARITCGGKNIGSKSVHWYQQKPGQAPVVVIHYDSDRPSGIPERFSGSNSGNTATLTISRVEAGDEADYYCQVWDSSSDHPYVFGTGTKVTVLGSRGGGGSGGGGSGGGGSLEMAQVQLVQSGAEVKKPGASVKVSCKASGYTFTNYGISWVRQAPGQGLEWMGWISAYNGNTNYAHKLQGRVTMTTDTSTSTANMELRSLRPDDTAVYYCARSYFGSHDYWGQGTLVTVSS
notes: as for B1
B3: ET200-124 scFv (scFv)
scFv: SYVLTQPPSVSVAPGKTARISCGGNDIGSKSVFWYQQRPGQAPVLVVYDDSDRPSGLPERFSGFNSGNTATLTISRVEAGDEADYYCQVWDSSSDHYVFGTGTKVTVLGSRGGGGSGGGGSGGGGSLEMAQVQLVESGGGLVQPGRSLRLSCAASGFTFDDYAMHWVRQAPGKGLEWVSGISWNSGSIGYADSVKGRFTISRDNAKNSLYLQMNSLRAEDTALYYCAKDITYGSGSYGAFDIWGQGTMVTVSS
notes: as for B1
B4: ET200-010 scFv (scFv)
scFv: QSALTQPASVSGSPGQSITISCTGTSSDVGGYNSVSWYQQHPGKAPRLMIYDVSNRPSGVSNRFSGSKSGNTASLTISGLQAEDEADYYCSSYTSSSTPLVFGTGTKVTVLGSRGGGGSGGGGSGGGGSLEMAQVQLVQSGAEVKKPGASVKVSCKASGYTFTSYGISWVRQAPGQGLEWMGWISAYNGNTNYAQKLQGRVTMTTDTSTSTAYMELRSLRSDDTAVYYCARGAVAYHDWGQGTLVTVSS
notes: as for B1
B5: ET200-011 scFv (scFv)
scFv: QSVVTQPPSVSAAPGQRVTISCSGSSSNISIYDVSWYQQLPGTAPKLLIYGNNKRPSGIADRFSGSTSGTSATLGITGLQTGDEADYYCGTWDDSLSGGVFGGGTKLTVLGSRGGGGSGGGGSGGGGSLEMAQMQLVQSGAEVKKPGSSVKVSCEASGGTLSSYAINWVRQAPGQGLEWMGGIIPMFGTAHYAQKFQGRVTITADESTKTAYMELSSLRSEDTAVYYCARGVHYASFDHWGQGTLVTVSS
notes: as for B1
B6: ET200-123 scFv (scFv)
scFv: QAVLTQPPSASGTPGQRVTISCSGSSSNIGSNTVNWYQQLPGTAPKLLMYNNDQRPSGVPDRFSGSKSGTSASLAISGLQSEDEADYYCAAWDDSLNGYVFGPGTKVTVLGSRGGGGSGGGGSGGGGSLEMAQVQLVESGAEVKKPGASVKVSCKASGYTFTSYGISWVRQAPGQGLEWMGWISAYNGNTNYAQKLQGRVTMTTDTSTSTAYMELRSLRSDDTAVYYCARDLSRGANPHYYYYYGMDVWGQGTTVTVSS
notes: as for B1

For this assay, the target named is T1, human Fc Receptor-Like 5 (FcRL5), full …. In words: scFv phage: ELISA on His-tag FcRL5, flow cytometry on FcRL5-overexpressing 3T3 and Raji cells. (In general: In an ELISA, binding on a coated surface is turned into a signal by an enzyme label.)
With B1, the binding result was “binds”.
Under B2 stands “binds”; under B3, “binds”; under B4, “binds”.
For the molecule B5, the binding result is reported as “binds”.
As for B6, the entry is “binds”.
